For test [1], the target named is T1, human wild-type CD33 (human, UniProt P20138 18-364).
T1 construct: also called SIGLEC3; P67
Description: flow cytometry, Fab at 0.50 ug/ml on HEK293-T cells expressing CD33 against vector alone. A general note: In flow cytometry, cells or beads pass a laser one at a time.
Description: (§1) Serial dilutions of each Fab were tested for immunoreactivity against cells expressing wild-type CD33 or vector alone. The optimal screening concentration for the Fabs was determined based on the raw signal values and signal-to-background calculations. Each point represents the mean of four replicates.

Test [2] addresses human CD33 W22A (human, UniProt P20138 18-364). Description: flow cytometry, alanine scan.
The target in test [3] is human CD33 V37A (human, UniProt P20138 18-364). Description: flow cytometry, alanine scan.
human CD33 V37A, sequence (P20138 18-364 V37A limits assumed): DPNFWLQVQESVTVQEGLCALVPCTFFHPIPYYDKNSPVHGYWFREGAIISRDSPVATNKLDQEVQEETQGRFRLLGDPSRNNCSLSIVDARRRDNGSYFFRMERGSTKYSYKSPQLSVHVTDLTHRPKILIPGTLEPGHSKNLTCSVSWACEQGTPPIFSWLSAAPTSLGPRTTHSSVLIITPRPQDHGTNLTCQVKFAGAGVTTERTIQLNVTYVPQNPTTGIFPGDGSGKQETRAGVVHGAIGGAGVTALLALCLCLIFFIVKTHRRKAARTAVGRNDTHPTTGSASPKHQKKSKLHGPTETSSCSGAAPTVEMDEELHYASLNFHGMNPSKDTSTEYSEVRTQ
The target of test [4] is human CD33 V31A (human, UniProt P20138 18-364). Description: flow cytometry, alanine scan.
human CD33 V31A, sequence (P20138 18-364 V31A limits assumed): as the sequence (P20138 18-364 V37A limits assumed) above, with V14A, A20V counted along it
In test [5] the target is human CD33 D18A (human, UniProt P20138 19-364). Briefly: flow cytometry, alanine scan.
human CD33 D18A, sequence (P20138 18-364 D18A limits assumed): as the sequence (P20138 18-364 V37A limits assumed) above, with D1A, A20V counted along it
The target of test [6] is human CD33 F43A (human, UniProt P20138 18-364). Briefly: flow cytometry, alanine scan.
human CD33 F43A, sequence (P20138 18-364 F43A limits assumed): as the sequence (P20138 18-364 V37A limits assumed) above, with A20V, F26A counted along it
Test [7] has as its target human CD33 L38A (human, UniProt P20138 18-364). Description: flow cytometry, alanine scan.
For test [8], the target named is human CD33 S28A (human, UniProt P20138 18-364). Briefly: flow cytometry, alanine scan.
human CD33 S28A, sequence (P20138 18-364 S28A limits assumed): as the sequence (P20138 18-364 V37A limits assumed) above, with S11A, A20V counted along it
Test [9] addresses human CD33 L35A (human, UniProt P20138 18-364). Briefly: flow cytometry, alanine scan.
For test [10], the target named is human CD33 P40A (human, UniProt P20138 18-364). Briefly: flow cytometry, alanine scan.
human CD33 P40A, sequence (P20138 18-364 P40A limits assumed): as the sequence (P20138 18-364 V37A limits assumed) above, with A20V, P23A counted along it
Test [11] concerns the target human CD33 T30A (human, UniProt P20138 18-364). Description: flow cytometry, alanine scan.
In test [12] the target is human CD33 C36A (human, UniProt P20138 18-364). Description: flow cytometry, alanine scan.
human CD33 C36A, sequence (P20138 18-364 C36A limits assumed): as the sequence (P20138 18-364 V37A limits assumed) above, with C19A, A20V counted along it
Test [13] has as its target human CD33 N20A (human, UniProt P20138 18-364). Briefly: flow cytometry, alanine scan.
Test [14] addresses human CD33 V39A (human, UniProt P20138 18-364). Description: flow cytometry, alanine scan.
The target in test [15] is human CD33 Q32A (human, UniProt P20138 18-364). Briefly: flow cytometry, alanine scan.
human CD33 Q32A, sequence (P20138 18-364 Q32A limits assumed): as the sequence (P20138 18-364 V37A limits assumed) above, with Q15A, A20V counted along it
Test [16] concerns the target human CD33 P19A (human, UniProt P20138 18-364). Briefly: flow cytometry, alanine scan.
The target of test [17] is human CD33 E33A (human, UniProt P20138 18-364). Briefly: flow cytometry, alanine scan.
human CD33 E33A, sequence (P20138 18-364 E33A limits assumed): as the sequence (P20138 18-364 V37A limits assumed) above, with E16A, A20V counted along it
For test [18], the target named is human CD33 T42A (human, UniProt P20138 18-364). Briefly: flow cytometry, alanine scan.
human CD33 T42A, sequence (P20138 18-364 T42A limits assumed): as the sequence (P20138 18-364 V37A limits assumed) above, with A20V, T25A counted along it
Test [19] addresses human CD33 V29A (human, UniProt P20138 18-364). Briefly: flow cytometry, alanine scan.
Test [20] addresses human CD33 C41A (human, UniProt P20138 18-364). Description: flow cytometry, alanine scan.
The target in test [21] is human CD33 G34A (human, UniProt P20138 18-364). Briefly: flow cytometry, alanine scan.
human CD33 G34A, sequence (P20138 18-364 G34A limits assumed): as the sequence (P20138 18-364 V37A limits assumed) above, with G17A, A20V counted along it
The target in test [22] is human CD33 H45A (human, UniProt P20138 18-364). Description: flow cytometry, alanine scan.
human CD33 H45A, sequence (P20138 18-364 H45A limits assumed): as the sequence (P20138 18-364 V37A limits assumed) above, with A20V, H28A counted along it
The target in test [23] is human CD33 E27A (human, UniProt P20138 18-364). Briefly: flow cytometry, alanine scan.
human CD33 E27A, sequence (P20138 18-364 E27A limits assumed): as the sequence (P20138 18-364 V37A limits assumed) above, with E10A, A20V counted along it
Test [24] has as its target human CD33 F21A (human, UniProt P20138 18-364). Description: flow cytometry, alanine scan.
Test [25] has as its target human CD33 L23A (human, UniProt P20138 18-364). Description: flow cytometry, alanine scan.
In test [26] the target is T1, human wild-type CD33. Description: flow cytometry, Fab at 1.00 ug/ml on HEK293-T cells expressing CD33 against vector alone.
Description: as §1
The target of test [27] is T1, human wild-type CD33. Briefly: flow cytometry, IgG at 0.25 ug/ml on HEK293-T cells expressing CD33 against vector alone.
Description: Binding of the antibodies to the transfected cells and the optimal assay conditions were evaluated in 384-well format. Detection of cellular expression was measured via high-throughput flow cytometry. Serial dilutions of each antibody were tested for immunoreactivity against cells expressing CD33 or vector alone. The optimal screening concentration for each antibody was determined based on the raw signal values and signal-to-background calculations. Each point represents the mean of four replicates.

T1 sequence (P20138 18-364 limits assumed): as the sequence (P20138 18-364 V37A limits assumed) above, with A20V counted along it
human CD33 P19A, sequence (P20138 18-364 P19A limits assumed): as the sequence (P20138 18-364 V37A limits assumed) above, with P2A, A20V counted along it
human CD33 N20A, sequence (P20138 18-364 N20A limits assumed): as the sequence (P20138 18-364 V37A limits assumed) above, with N3A, A20V counted along it
human CD33 L35A, sequence (P20138 18-364 L35A limits assumed): as the sequence (P20138 18-364 V37A limits assumed) above, with L18A, A20V counted along it
human CD33 V29A, sequence (P20138 18-364 V29A limits assumed): as the sequence (P20138 18-364 V37A limits assumed) above, with V12A, A20V counted along it
human CD33 L38A, sequence (P20138 18-364 L38A limits assumed): as the sequence (P20138 18-364 V37A limits assumed) above, with A20V, L21A counted along it
human CD33 L23A, sequence (P20138 18-364 L23A limits assumed): as the sequence (P20138 18-364 V37A limits assumed) above, with L6A, A20V counted along it
human CD33 F21A, sequence (P20138 18-364 F21A limits assumed): as the sequence (P20138 18-364 V37A limits assumed) above, with F4A, A20V counted along it
human CD33 T30A, sequence (P20138 18-364 T30A limits assumed): as the sequence (P20138 18-364 V37A limits assumed) above, with T13A, A20V counted along it
human CD33 W22A, sequence (P20138 18-364 W22A limits assumed): as the sequence (P20138 18-364 V37A limits assumed) above, with W5A, A20V counted along it
human CD33 C41A, sequence (P20138 18-364 C41A limits assumed): as the sequence (P20138 18-364 V37A limits assumed) above, with A20V, C24A counted along it
human CD33 V39A, sequence (P20138 18-364 V39A limits assumed): as the sequence (P20138 18-364 V37A limits assumed) above, with A20V, V22A counted along it

B1: Refmab #5 Fab fragment (Fab, V domains shown)
VH: QVQLVQSGAEVKKPGASVKVSCKASGYTFTNYDINWVRQAPGQGLEWIGWIYPGDGSTKYNEKFKAKATLTADTSTSTAYMELRSLRSDDTAVYYCASGYEDAMDYWGQGTTVTVSS
VL: DIQMTQSPSSLSASVGDRVTINCKASQDINSYLSWFQQKPGKAPKTLIYRANRLVDGVPSRFSGSGSGQDYTLTISSLQPEDFATYYCLQYDEFPLTFGGGTKVEIK
Turning to B1, in test [1], the “Signal:Background” value is 17 signal:background ratio.

B2: Refmab #6 (antibody, V domains shown)
VH: QVQLQQPGAEVVKPGASVKMSCKASGYTFTSYYIHWIKQTPGQGLEWVGVIYPGNDDISYNQKFQGKATLTADKSSTTAYMQLSSLTSEDSAVYYCAREVRLRYFDVWGQGTTVTVSS
VL: EIVLTQSPGSLAVSPGERVTMSCKSSQSVFFSSSQKNYLAWYQQIPGQSPRLLIYWASTRESGVPDRFTGSGSGTDFTLTISSVQPEDLAIYYCHQYLSSRTFGQGTKLEIK
notes: The alanine scan used IgG or Fab
For the molecule B2, the “Mean % WT Binding” value is 3.8 % of WT in test [2]; 111 % of WT in test [3]; 105 % of WT in test [4]; 39.5 % of WT in [5]; 34.6 % of WT in test [6]; 105 % of WT in test [7]. In addition, the “Mean % WT Binding” value in test [8] is 89.4 % of WT; in test [9] it was 97.2 % of WT; in test [10] it was 55.5 % of WT; in [11] it was 104 % of WT; in [12] it was 110 % of WT; in test [13], 92.9 % of WT. For the same molecule, the “Mean % WT Binding” value in test [14] was 79.2 % of WT; in test [15] it was 91.3 % of WT; in test [16], 87.4 % of WT; in [17] it was 90 % of WT; in test [18], 36.6 % of WT; in [19], 112 % of WT. Further, the “Mean % WT Binding” value in test [20] is 4.5 % of WT; in test [21], 100 % of WT; in [22], 87.8 % of WT; in test [23] it was 92.6 % of WT; in test [24], 88.1 % of WT; in test [25], 41.4 % of WT.

B3: Refmab #2 Fab fragment (Fab, V domains shown)
VH: QVQLVQSGAEVKKPGSSVKVSCKASGGTFSDYAISWVRQAPGQGLEWMGRIIPILGVADYAQKFQGRVTITADKSTRTAYMELSSLRSEDTAVYYCARNWADAFDIWGQGTMVTVSS
VL: DIQLTQSPSSLSASVGDRVTITCRASQGISSVLAWYQQKPGKAPKLLIYDASSLESGVPSRFSGSGSGTDFTLTISSLQPEDFATYYCQQFDSSITFGQGTKLEIK
For B3, the “Signal:Background” value in test [26] is 7 signal:background ratio.

B4: Refmab #4 (antibody, human IgG1, V domains shown)
VH: QVQLVQSGAEVKKPGESVKVSCKASGYTFTNYGMNWVKQAPGQGLEWMGWINTYTGEPTYADKFQGRVTMTTDTSTSTAYMEIRNLGGDDTAVYYCARWSWSDGYYVYFDYWGQGTSVTVSS
VL: DIVMTQSPDSLTVSLGERTTINCKSSQSVLDSSTNKNSLAWYQQKPGQPPKLLLSWASTRESGIPDRFSGSGSGTDFTLTIDSPQPEDSATYYCQQSAHFPITFGQGTRLEIK
notes: Full-length MAb format, human IgG1 Fc silent (PG-LALA)
On to B4, for which the “Signal:Background” value in [27] was 38 signal:background ratio.

B5: Refmab #4 Fab fragment (Fab, V domains shown)
VH: QVQLVQSGAEVKKPGESVKVSCKASGYTFTNYGMNWVKQAPGQGLEWMGWINTYTGEPTYADKFQGRVTMTTDTSTSTAYMEIRNLGGDDTAVYYCARWSWSDGYYVYFDYWGQGTSVTVSS
VL: DIVMTQSPDSLTVSLGERTTINCKSSQSVLDSSTNKNSLAWYQQKPGQPPKLLLSWASTRESGIPDRFSGSGSGTDFTLTIDSPQPEDSATYYCQQSAHFPITFGQGTRLEIK
For the molecule B5, the “Signal:Background” value in test [1] was 33 signal:background ratio.

B6: Refmab #3 Fab fragment (Fab, V domains shown)
VH: QVQLVQSGAEVKKPGSSVKVSCKASGYTFTDYNMHWVRQAPGQGLEWIGYIYPYNGGTGYNQKFKSKATITADESTNTAYMELSSLRSEDTAVYYCARGRPAMDYWGQGTLVTVSS
VL: DIQMTQSPSSLSASVGDRVTITCRASESVDNYGISFMNWFQQKPGKAPKLLIYAASNQGSGVPSRFSGSGSGTDFTLTISSLQPDDFATYYCQQSKEVPWTFGQGTKVEIK
B6: the “Signal:Background” value in test [26] is 12 signal:background ratio.
